# Patent US6387643B1, “Human platelet heparanase polypeptides, polynucleotide molecules that encode them, and methods for the identification of compounds that alter heparanase activity” (Pharmacia and Upjohn Company, priority 1998, dated 2002)
# B1: purified heparanase: Human platelet heparanase: non-covalently associated 56 kDa (residues 145-530) and 8 kDa (residues 23-96) polypeptides of SEQ ID NO:2 (protein)
# chain: QDVVDLDFFTQEPLHLVSPSFLSVTIDANLATDPRFLILLGSPKLRTLARGLSPAYLRFGGTKTDFLIFDPKKESTFEERSYWQSQVNQDICKYGSIPPDVEEKLRLEWPYQEQLLLREHYQKKFKNSTYSRSSVDVLYTFANCSGLDLIFGLNALLRTADLQWNSSNAQLLLDYCSSKGYNISWELGNEPNSFLKKADIFINGSQLGEDFIQLHKLLRKSTFKNAKLYGPDVGQPRRKTAKMLKSFLKAGGEVIDSVTWHHYYLNGRTATKEDFLNPDVLDIFISSVQKVFQVVESTRPGKKVWLGETSSAYGGGAPLLSDTFAAGFMWLDKLGLSARMGIEVVMRQVFFGAGNYHLVDENFDPLPDYWLSLLFKKLVGTKVLMASVQGSKRRKLRVYLHCTNTDNPRYKEGDLTLYAINLHNVTKYLRLPYPFSNKQVDKYLLRPLGPHGLLSKSVQLNGLTLKMVDDQTLPPLMEKPLRPGSSLGLPAFSYSFFVIRNAKVAACI
# modifications: two chains: residues 145-530 and 23-96
# B2: Pro-heparanase: 508 residue protein, amino acid residues 23 to 530 of SEQ ID NO: 2, precursor of heparanase (protein)
# chain: B1 chain
# Experiments:
# [1] = system: platelets; settings: 1 U/ml thrombin; cited from earlier work
# [2] = system: ^35S-HSPG (>70 K); assay: Heparanase activity, Conventional Assay (degradation of 35S-HSPG, 30,000 MW cut-off filter); assay type: biochemical, mice
# Experimental: The pH optimum of the purified heparanase was determined by conducting the assay described in Example 2 (the Conventional Assay) in the pH range of 3.5 to 8.0, using a citrate buffer (pH 3.5-6.0), citrate-phosphate buffer (pH 6.5-7.0), and phosphate buffer (pH 7.5-8). Heparanase was active between pH 5.0 and 8.0, with the optimum pH at 5.8.
# ^35S-HSPG (>70 K) was prepared from mice bearing a basement membrane tumor that overproduces HSPG (EHS tumor), using modifications of the method of Ledbetter et al. (Biochemistry 26: 988-995 (1987)). Briefly, the radiolabeled HSPG was prepared by injecting C57BL mice bearing the EHS tumor with sodium [^35S] sulfate (0.5 mCi/mouse) 18 h before harvesting the tumor. […]
# ^35S-HSPG was isolated from the Buffer B supernatant by sequential chromatography on anion exchange and gel filtration columns. […] Fractions were sampled for radioactivity, and those containing the ^35SO4 label that eluted from the DEAE-Sephacel between 0.4 M and 0.8 M NaCl were pooled. […] Fractions were sampled for radioactivity, and those containing the ^35SO4 label that elutes with a molecular weight 70 kDa were pooled. […]
# Heparanase activity from platelets or column fractions was detected by its ability to digest the 70 kDa ^35S-HSPG to produce lower molecular weight products. not retained by a 30,000 MW cut-off membrane. […]
molecule,measurement,setting,value
thrombin,heparanase activity released from platelets,[1],100%
B1,optimum pH of heparanase activity,"[2]; pH range 3.5 to 8.0, citrate, citrate-phosphate and phosphate buffers",5.8
B2,catalytic activity,[2]; before cleavage of the Glu96-Ser97 and Gln144-Lys145 bonds,not catalytically active
